Data set [1] in a line: Octanol-water distribution coefficients. In kind it is physicochemical. The conditions noted are these: n-octanol / PBS pH 7.4, ^177Lu-labeled tracer, n = 6. On the procedure:
Approximately 1 MBq of the ^177Lu-labeled tracer was added to a mixture of 0.5 mL phosphate buffered saline (PBS, pH 7.4) and 0.5 mL n-octanol in an Eppendorf tube (n = 6). After vigorous mixing of the suspension for 3 min, the vial was centrifuged at 11.500 g for 3 min for phase separation. 200 μL aliquots of each phase were withdrawn and measured in a gamma counter.

The subject of data set [2] is subcutaneous LNCaP (PSMA-expressing human prostate carcinoma) xenografts. Nature of the data set: Biodistribution in SCID mice bearing LNCaP xenografts. In kind it is in vivo. The conditions noted are these: compared to ^177Lu-DOTPI(DBCO-KuE)4. On the procedure:
The experiments were carried out in accordance with the German Animal Welfare Act (Tierschutzgesetz), and were previously approved by the responsible authority (Regierung von Oberbayern). The animal model, male CB-17 SCID mice bearing subcutaneous LNCaP tumor xenografts, were generated as described before (Weineisen et al., [2014]). Approximately 1–4 MBq (varying molar activities; absolute molar amounts of active compound ranging from 0.11 to 0.15 nmol) of the ^177Lu-labeled PSMA inhibitors were injected into the tail vein of the animals, which were sacrificed 1 and 24 h post injection (n = 3 per tracer per time point). Selected organs were removed, weighted and the activities contained were measured in a γ-counter.

The term logD denotes the decadic logarithm of the distribution of all forms, ionised or not, between an organic phase and buffer at a given pH. Higher therefore signals higher lipophilicity. `O=C(O)CC[C@H](NC(=O)N[C@@H](CCCCNC(=O)CCCCCNC(=O)CCc1cn(CCCNC(=O)CCP(=O)(O)CN2CCN(CP(=O)(O)CCC(=O)NCCCn3cc(CCC(=O)NCCCCCC(=O)NCCCC[C@H](NC(=O)N[C@@H](CCC(=O)O)C(=O)O)C(=O)O)nn3)CCN(CP(=O)(O)CCC(=O)NCCCn3cc(CCC(=O)NCCCCCC(=O)NCCCC[C@H](NC(=O)N[C@@H](CCC(=O)O)C(=O)O)C(=O)O)nn3)CCN(CP(=O)(O)CCC(=O)NCCCn3cc(CCC(=O)NCCCCCC(=O)NCCCC[C@H](NC(=O)N[C@@H](CCC(=O)O)C(=O)O)C(=O)O)nn3)CC2)nn1)C(=O)O)C(=O)O` (single isomer, unassigned) [^177Lu-DOTPI(Trz-KuE)4, metal not drawn] displayed a logD in data set [1] of -5 ± 0.1. The kidney uptake entry in data set [2] (1 and 24 h post injection) is “remarkably low”. Further, the tumor-to-organ ratios result in data set [2] (after 24 h) is “substantially better”. Also, the “washout from non-target tissues” value in data set [2] was “much faster”.

Values taken from paper PMC5902495, “Synthesis of Symmetrical Tetrameric Conjugates of the Radiolanthanide Chelator DOTPI for Application in Endoradiotherapy by Means of Click Chemistry” (Frontiers in Chemistry, 2018).
